In the assay the target is GPdM (Ebola virus (EBOV), UniProt Q05320 33-632). In words: ELISA, truncated GP coated, 5A8 titrated (method of Example 2). (In an ELISA, binding on a coated surface is turned into a signal by an enzyme label.)

B1: 单克隆抗体5A8 (antibody, V domains shown)
VH: EVQLLESGGGLVKPGGSLRLSCAASGFTFSDYYMNWIRQAPGKGLEWVSYISSSGKTIYYADSVKGRFTISRDNAKKSLYLQMNSLRAEDTAVYYCARDREIVISTTILLGSDHYAMDVWGQGTTVTVSS
VL: DIQMTQSPFTLSASVGDRVTITCRASQSINSYLNWYQQKPGKAPKLLIYSASSLQSGVPSRFSGSGSGTDFTLTISSLQPEDFAIYYCQQTYRTPYTFGQGTKVEIKT
With B1, the concentration for a half-maximal effect (EC50) (as a rule, the concentration that produces a half-maximal response) is 8.2 ng/mL.

Values taken from CN111138528A (INST MILITARY MEDICINE ACADEMY MILITARY SCIENCES PLA, dated 2020).
